Data from patent EP2938355B1, “MONOVALENT AND MULTIVALENT LEISHMANIA VACCINES” (VIRBAC S.A., priority 2012, dated 2014).
Where a chain is given by its changes, count along the chain named.

Experiments:
Assay in all cases: Competition binding to HLA class II molecule against reference peptide
Set-up in all cases: species or system Homme
HLA-DR11 = HLA-DR11 (Homo sapiens, UniProt P01903+P01911); details: lower ratio = better affinity
Text: (§1) Les tableaux 7 et 8 ci-dessous représentent la concentration en peptide compétiteur (nM) (SEQ ID N°9 ou SEQ ID N°10) pour laquelle 50% de la liaison du peptide de référence aux molécules HLA-DRB1 et aux molécules HLADRB3, -DRB4, -DRB5 et HLA-DP4, est inhibée (IC50).
(§2) Pour chacun des tableaux 7 et 8, les résultats sont issus de deux expériences indépendantes. Tableau 7 :
(§3) Les valeurs indiquées correspondent aux IC50 obtenus pour chaque peptide étudié.
(§4) Plus la valeur de l'IC50 est faible, meilleure est l'affinité du peptide pour la molécule HLA étudiée. Ainsi, il est important de noter que les peptides de référence n'ont pas tous la même capacité de liaison selon la molécule HLA considérée. Ces valeurs correspondent aux valeurs standards attendues.
(§5) Le tableau 9 ci-dessous illustre l'activité relative des deux composés peptidiques SEQ ID N°9 et 10 pour les molécules HLA-DR, HLA-DRB et HLA-DP4 étudiées. L'activité relative est calculée à partir des deux tableaux 7 et 8 ci-dessus de la façon suivante : Ratio = (moyenne des valeurs d'IC50 obtenues pour le peptide testé)/(moyenne des valeurs d'IC50 obtenues avec le peptide de référence). Tableau 9 :
(§6) Dans ce tableau 9, l'activité relative est définie par le ratio obtenu entre la moyenne des IC50 calculée avec le peptide compétiteur et la moyenne des IC50 calculée avec le peptide de référence. L'activité relative permet ainsi de comparer les propriétés de liaison du peptide testé à celle du peptide de référence qui correspond au peptide qui lie de façon la plus efficace une molécule HLA donnée. Ainsi, une activité relative de 2 signifie que le peptide testé lie 2 fois moins efficacement la molécule HLA étudiée que le peptide de référence. Ainsi, plus le ratio est faible, meilleure est l'affinité du peptide pour la molécule HLA considérée.

HLA-DR3 = HLA-DR3 (Homo sapiens, UniProt P01903+P01911); details: for activité relative (ratio moyenne IC50 peptide testé / moyenne IC50 peptide de référence): lower ratio = better affinity; for affinité de liaison (in words): HLA-DR3
Text: as §1, §2, §3, §4, §5, §6

HLA-DR13 = HLA-DR13 (Homo sapiens, UniProt P01903+P01911); details: lower ratio = better affinity
Text: as §1, §2, §3, §4, §5, §6

HLA-DR7 = HLA-DR7 (Homo sapiens, UniProt P01903+P01911); details: for activité relative (ratio moyenne IC50 peptide testé / moyenne IC50 peptide de référence): DR7, lower ratio = better affinity
Text: as §1, §2, §3, §4, §5, §6

HLA-DR15 = HLA-DR15 (Homo sapiens, UniProt P01903+P01911); details: lower ratio = better affinity
Text: as §1, §2, §3, §4, §5, §6

HLA-DR4 = HLA-DR4 (Homo sapiens, UniProt P01903+P01911); details: lower ratio = better affinity
Text: as §1, §2, §3, §4, §5, §6

HLA-DR1 = HLA-DR1 (Homo sapiens, UniProt P01903+P01911); details: for activité relative (ratio moyenne IC50 peptide testé / moyenne IC50 peptide de référence): DR1, lower ratio = better affinity
Text: as §1, §2, §3, §4, §5, §6

HLA-DP402 = molecular target: T1, HLA-DP402 (Homo sapiens, UniProt P04440+P20036, A65V/A84D/A85E); details: lower ratio = better affinity
T1 sequence (P04440 30-258 A65V/A84D/A85E): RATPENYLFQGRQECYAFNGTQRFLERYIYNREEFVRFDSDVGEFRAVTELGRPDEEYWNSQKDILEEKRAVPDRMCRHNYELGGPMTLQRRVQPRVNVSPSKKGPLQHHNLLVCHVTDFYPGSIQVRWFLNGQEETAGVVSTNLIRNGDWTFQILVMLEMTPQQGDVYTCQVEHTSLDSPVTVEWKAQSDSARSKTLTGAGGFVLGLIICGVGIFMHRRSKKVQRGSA
T1 sequence (P20036 29-260): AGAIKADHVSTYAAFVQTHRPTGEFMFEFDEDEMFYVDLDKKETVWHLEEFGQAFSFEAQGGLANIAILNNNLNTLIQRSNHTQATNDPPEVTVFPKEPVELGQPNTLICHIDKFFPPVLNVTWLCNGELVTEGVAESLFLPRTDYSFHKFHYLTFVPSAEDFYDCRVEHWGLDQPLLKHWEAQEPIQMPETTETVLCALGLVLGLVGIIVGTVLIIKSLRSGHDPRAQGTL
Text: as §1, §2
(§7) Comme pour les résultats présentés ci-dessus, le tableau 8 illustre l'ensemble des valeurs d'IC50 obtenues pour les deux peptides testés et leur peptide de référence comme contrôle interne, pour la liaison aux molécules HLA-DRB3, -DRB4, -DRB5 et aux molécules HLA-DP401 et -DP402. Tableau 8 =:
as §5, §6

HLA-DRB4 = HLA-DRB4 (Homo sapiens, UniProt P01903+P13762); details: lower ratio = better affinity
Text: as §1, §2, §7, §5, §6

HLA-DRB5 = HLA-DRB5 (Homo sapiens, UniProt P01903+Q30154); details: for activité relative (ratio moyenne IC50 peptide testé / moyenne IC50 peptide de référence): lower ratio = better affinity
Text: as §1, §2, §7, §5, §6

HLA-DP401 = molecular target: T2, HLA-DP401 (Homo sapiens, UniProt P04440+P20036); details: lower ratio = better affinity
T2 sequence (P04440 30-258): T1 sequence (P04440 30-258 A65V/A84D/A85E) with V36A, D55A, E56A
T2 sequence (P20036 32-260 limits assumed): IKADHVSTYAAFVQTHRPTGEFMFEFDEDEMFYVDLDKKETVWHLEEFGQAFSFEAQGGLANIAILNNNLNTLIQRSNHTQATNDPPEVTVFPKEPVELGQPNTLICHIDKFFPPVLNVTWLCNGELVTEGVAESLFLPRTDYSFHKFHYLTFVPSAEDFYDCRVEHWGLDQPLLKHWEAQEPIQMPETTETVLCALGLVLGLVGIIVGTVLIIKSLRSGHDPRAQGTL
Text: as §1, §2, §7, §5, §6

HLA-DRB3 = HLA-DRB3 (Homo sapiens, UniProt P01903+P79483); details: for activité relative (ratio moyenne IC50 peptide testé / moyenne IC50 peptide de référence): DRB3, lower ratio = better affinity; for affinité de liaison (in words): HLADRB3
Text: as §1, §2, §7, §5, §6

| Substance | activité relative (ratio moyenne IC50 peptide testé / moyenne IC50 peptide de référence) (HLA-DR11) | activité relative (ratio moyenne IC50 peptide testé / moyenne IC50 peptide de référence) (HLA-DR3; DR3) | IC50 (HLA-DR3; DR3, two independent experiments, one line each, read-out: IC50 (concentration en peptide compétiteur pour laquelle 50% de la liaison du peptide de référence est inhibée)) | affinité de liaison (in words) (HLA-DR3) | activité relative (ratio moyenne IC50 peptide testé / moyenne IC50 peptide de référence) (HLA-DR13) | activité relative (ratio moyenne IC50 peptide testé / moyenne IC50 peptide de référence) (HLA-DR7) | activité relative (ratio moyenne IC50 peptide testé / moyenne IC50 peptide de référence) (HLA-DR15) | activité relative (ratio moyenne IC50 peptide testé / moyenne IC50 peptide de référence) (HLA-DR4) | activité relative (ratio moyenne IC50 peptide testé / moyenne IC50 peptide de référence) (HLA-DR1) | activité relative (ratio moyenne IC50 peptide testé / moyenne IC50 peptide de référence) (HLA-DP402) | activité relative (ratio moyenne IC50 peptide testé / moyenne IC50 peptide de référence) (HLA-DRB4) | activité relative (ratio moyenne IC50 peptide testé / moyenne IC50 peptide de référence) (HLA-DRB5) | activité relative (ratio moyenne IC50 peptide testé / moyenne IC50 peptide de référence) (HLA-DP401) | activité relative (ratio moyenne IC50 peptide testé / moyenne IC50 peptide de référence) (HLA-DRB3) | affinité de liaison (in words) (HLA-DRB3) | affinité de liaison (in words) (HLA-DR7; HLA-DR7) | affinité de liaison (in words) (HLA-DR1; HLA-DR1) | affinité de liaison (in words) (HLA-DRB5) |
| --- | --- | --- | --- | --- | --- | --- | --- | --- | --- | --- | --- | --- | --- | --- | --- | --- | --- | --- |
| EGYFVTDEKTGLVYRDGGVAAASSG (EGYFVTDEKTGLVYRDGGVAAASSG) [SEQ ID N°10] | 3 | 0,2 | 0.035 µM | bonne affinité de liaison | 18 | 928 | 1 | 2 | 271 | 2000 | >9535 | 688 | 5556 | 5 | bonne affinité de liaison | – | – | – |
| TNTLAVLQAFGRAIPELGKKW (TNTLAVLQAFGRAIPELGKKW) [SEQ ID N°9] | 3 | >187 | – | n'est pas actif | 41 | 3 | 5 | 2 | 1 | >2222 | 1331 | 0,9 | >3727 | >274 | n'est pas actif | affinité de liaison élevée | affinité de liaison élevée | affinité de liaison élevée |
